Data on four molecules can be found in patent US20260167720A1 (Amgen, published 2026).

B1: MSLN-CDH3 T-cell engager molecule 3 (example to FIG. 2A) (bispecific antibody)
chain 1: not shown
chain 2: EVQLVESGGGLVQPGGSLKLSCAASGFTFNKYAMNWVRQAPGKGMEWVARIRSKYNNYATYYADAVKDRFTISRDDSKNTLYLQMNNLKTEDTAVYYCVRAGNFGSSYISYFAYWGQGTLVTVSSGGGGQGGGGQGGGGQQTVVTQEPSLTVSPGGTVTITCGSSTGAVTSGNYPNWIQKKPGQAPRGLIGGTKFLAPGTPARFSGSLEGGKAALTLSGVQPEDEAEYYCVLYYSNRWVFGSGTKLTVLGGGGQGGGGQGGGGQDKTHTCPPCPAPELLGGPSVFLFPPKPKDTLMISRTPEVTCVVVDVSHEDPEVKFNWYVDGVEVHNAKTKPCEEQYGSTYRCVSVLTVLHQDWLNGKEYKCKVSNKALPAPIEKTISKAKGQPREPQVYTLPPSRKEMTKNQVSLTCLVKGFYPSDIAVEWESNGQPENNYKTTPPVLKSDGSFFLYSKLTVDKSRWQQGNVFSCSVMHEALHNHYTQKSLSLSPGKGGGGQGGGGQGGGGQEVQLVESGGGLVQPGGSLKLSCAASGFTFNKYAMNWVRQAPGKGMEWVARIRSKYNNYATYYADAVKDRFTISRDDSKNTLYLQMNNLKTEDTAVYYCVRAGNFGSSYISYFAYWGQGTLVTVSSGGGGQGGGGQGGGGQQTVVTQEPSLTVSPGGTVTITCGSSTGAVTSGNYPNWIQKKPGQAPRGLIGGTKFLAPGTPARFSGSLEGGKAALTLSGVQPEDEAEYYCVLYYSNRWVFGSGTKLTVL
B2: MSLN-CDH3 T-cell engager molecule 1 (scFc single chain) (bispecific antibody)
chain: QVQLVQSGAEVKKPGASVKVSCKASGYTFTNYWMNWVRQAPGQCLEWMGNIAYGVAGTNYNQKFQGRVTMTVDTSSSTAYMELSRLRSDDTAVYYCATRYFYVMDYWGQGTLVTVSSGGGGQGGGGQGGGGQEIQMTQSPSSLSASVGDRVTITCRASQDISNYLNWYQQKPGKVPKLLIYYTSRLHSGVPSRFSGSGSGTDFTLTISSLQPEDVATYYCVQYAQFPLTFGCGTKVEIKSGGGGQEVQLVESGGGLVQPGGSLKLSCAASGFTFNKYAMNWVRQAPGKGMEWVARIRSKYNNYATYYADAVKDRFTISRDDSKNTLYLQMNNLKTEDTAVYYCVRAGNFGSSYISYFAYWGQGTLVTVSSGGGGQGGGGQGGGGQQTVVTQEPSLTVSPGGTVTITCGSSTGAVTSGNYPNWIQKKPGQAPRGLIGGTKFLAPGTPARFSGSLEGGKAALTLSGVQPEDEAEYYCVLYYSNRWVFGSGTKLTVLGGGGCPPCPAPELLGGPSVFLFPPKPKDTLMISRTPEVTCVVVDVSHEEPEVKFNWYVDGVEVHNAKTKPCEEQYGSTYRCVSVLTVLHQDWLNGKEYKCKVSNKALPAPIEKTISKAKGQPREPQVYTLPPSREEMTKNQVSLTCLVKGFYPSDIAVEWESNGQPENNYKTTPPVLDSDGSFFLYSKLTVDKSRWQQGNVFSCSVMHEALHNHYTQKSLSLSPGKGGGGQGGGGQGGGGQGGGGQGGGGQGGGGQCPPCPAPELLGGPSVFLFPPKPKDTLMISRTPEVTCVVVDVSHEEPEVKFNWYVDGVEVHNAKTKPCEEQYGSTYRCVSVLTVLHQDWLNGKEYKCKVSNKALPAPIEKTISKAKGQPREPQVYTLPPSREEMTKNQVSLTCLVKGFYPSDIAVEWESNGQPENNYKTTPPVLDSDGSFFLYSKLTVDKSRWQQGNVFSCSVMHEALHNHYTQKSLSLSPGKGGGGQVQLQESGPGLVKPSETLSLTCTVSGGSISSSSYFWGWIRQPPGKCLEWIGNIYYSGSSNYNPSLKSRVTISVDTSKNQFSLKLSSVTAADTAVYYCARLPRGDRDAFDIWGQGTMVTVSSGGGGQGGGGQGGGGQEIVMTQSPSSLSASVGDRVTITCRASQGISNYLAWYQQKPGKVPKLLIYAASTLQSGVPSRFSGSGSGTDFTLTISSLQPEDFATYYCQQSYSTPFTFGCGTKVEIKSGGGGQEVQLVESGGGLVQPGGSLKLSCAASGFTFNKYAMNWVRQAPGKGMEWVARIRSKYNNYATYYADAVKDRFTISRDDSKNTLYLQMNNLKTEDTAVYYCVRAGNFGSSYISYFAYWGQGTLVTVSSGGGGQGGGGQGGGGQQTVVTQEPSLTVSPGGTVTITCGSSTGAVTSGNYPNWIQKKPGQAPRGLIGGTKFLAPGTPARFSGSLEGGKAALTLSGVQPEDEAEYYCVLYYSNRWVFGSGTKLTVL
B3: MSLN-CDH3 T-cell engager molecule 2 (heteroFc multichain) (bispecific antibody)
chain 1: QVQLVQSGAEVKKPGASVKVSCKASGYTFTNYWMNWVRQAPGQCLEWMGNIAYGVAGTNYNQKFQGRVTMTVDTSSSTAYMELSRLRSDDTAVYYCATRYFYVMDYWGQGTLVTVSSGGGGQGGGGQGGGGQEIQMTQSPSSLSASVGDRVTITCRASQDISNYLNWYQQKPGKVPKLLIYYTSRLHSGVPSRFSGSGSGTDFTLTISSLQPEDVATYYCVQYAQFPLTFGCGTKVEIKSGGGGQEVQLVESGGGLVQPGGSLKLSCAASGFTFNKYAMNWVRQAPGKGMEWVARIRSKYNNYATYYADAVKDRFTISRDDSKNTLYLQMNNLKTEDTAVYYCVRAGNFGSSYISYFAYWGQGTLVTVSSGGGGQGGGGQGGGGQQTVVTQEPSLTVSPGGTVTITCGSSTGAVTSGNYPNWIQKKPGQAPRGLIGGTKFLAPGTPARFSGSLEGGKAALTLSGVQPEDEAEYYCVLYYSNRWVFGSGTKLTVLGGGGCPPCPAPELLGGPSVFLFPPKPKDTLMISRTPEVTCVVVDVSHEDPEVKFNWYVDGVEVHNAKTKPCEEQYGSTYRCVSVLTVLHQDWLNGKEYKCKVSNKALPAPIEKTISKAKGQPREPQVYTLPPSREEMTKNQVSLTCLVKGFYPSDIAVEWESNGQPENNYDTTPPVLDSDGSFFLYSDLTVDKSRWQQGNVFSCSVMHEALHNHYTQDSLSLSPGK
chain 2: CPPCPAPELLGGPSVFLFPPKPKDTLMISRTPEVTCVVVDVSHEDPEVKFNWYVDGVEVHNAKTKPCEEQYGSTYRCVSVLTVLHQDWLNGKEYKCKVSNKALPAPIEKTISKAKGQPREPQVYTLPPSRKEMTKNQVSLTCLVKGFYPSDIAVEWESNGQPENNYKTTPPVLKSDGSFFLYSKLTVDKSRWQQGNVFSCSVMHEALHNHYTQKSLSLSPGKGGGGQVQLQESGPGLVKPSETLSLTCTVSGGSISSSSYFWGWIRQPPGKCLEWIGNIYYSGSSNYNPSLKSRVTISVDTSKNQFSLKLSSVTAADTAVYYCARLPRGDRDAFDIWGQGTMVTVSSGGGGQGGGGQGGGGQEIVMTQSPSSLSASVGDRVTITCRASQGISNYLAWYQQKPGKVPKLLIYAASTLQSGVPSRFSGSGSGTDFTLTISSLQPEDFATYYCQQSYSTPFTFGCGTKVEIKSGGGGQEVQLVESGGGLVQPGGSLKLSCAASGFTFNKYAMNWVRQAPGKGMEWVARIRSKYNNYATYYADAVKDRFTISRDDSKNTLYLQMNNLKTEDTAVYYCVRAGNFGSSYISYFAYWGQGTLVTVSSGGGGQGGGGQGGGGQQTVVTQEPSLTVSPGGTVTITCGSSTGAVTSGNYPNWIQKKPGQAPRGLIGGTKFLAPGTPARFSGSLEGGKAALTLSGVQPEDEAEYYCVLYYSNRWVFGSGTKLTVL
B4: MSLN-CDH3 T-cell engager molecule 4 (example to FIG. 2B) (bispecific antibody)
chain 1: not shown
chain 2: EVQLVESGGGLVQPGGSLKLSCAASGFTFNKYAMNWVRQAPGKGMEWVARIRSKYNNYATYYADAVKDRFTISRDDSKNTLYLQMNNLKTEDTAVYYCVRAGNFGSSYISYFAYWGQGTLVTVSSGGGGQGGGGQGGGGQQTVVTQEPSLTVSPGGTVTITCGSSTGAVTSGNYPNWIQKKPGQAPRGLIGGTKFLAPGTPARFSGSLEGGKAALTLSGVQPEDEAEYYCVLYYSNRWVFGSGTKLTVLGGGGQGGGGQGGGGQDKTHTCPPCPAPELLGGPSVFLFPPKPKDTLMISRTPEVTCVVVDVSHEDPEVKFNWYVDGVEVHNAKTKPCEEQYGSTYRCVSVLTVLHQDWLNGKEYKCKVSNKALPAPIEKTISKAKGQPREPQVYTLPPSRKEMTKNQVSLTCLVKGFYPSDIAVEWESNGQPENNYKTTPPVLKSDGSFFLYSKLTVDKSRWQQGNVFSCSVMHEALHNHYTQKSLSLSPGKGGGGQGGGGQGGGGQQVQLQESGPGLVKPSETLSLTCTVSGGSISSSSYFWGWIRQPPGKCLEWIGNIYYSGSSNYNPSLKSRVTISVDTSKNQFSLKLSSVTAADTAVYYCARLPRGDRDAFDIWGQGTMVTVSSGGGGQGGGGQGGGGQEIVMTQSPSSLSASVGDRVTITCRASQGISNYLAWYQQKPGKVPKLLIYAASTLQSGVPSRFSGSGSGTDFTLTISSLQPEDFATYYCQQSYSTPFTFGCGTKVEIK

The target in one test is T1, MSLN (Mesothelin) on HCT116 or GSU cells (UniProt Q13421 37-598, limits assumed). As to the kind of experiment: cell-based or functional assay.
Turning to B1, the “EC50 GSU KO CDH3 [pM]; TDCC, CDH3 knocked out, MSLN left” value (from here on “EC50 GSU KO CDH3 [pM]; TDCC”) came to 7.5 pM; the “EC50 GSU WT [pM]; TDCC, cells double positive for CDH3 and MSLN” value (“EC50 GSU WT [pM]; TDCC” below) came out at 0.073 pM.
B2: the “EC50 GSU KO CDH3 [pM]; TDCC” value came to 0.47 pM; the “EC50 GSU WT [pM]; TDCC” value was 0.013 pM.
On to B3, for which the “EC50 GSU KO CDH3 [pM]; TDCC” value is 2.5 pM; the “EC50 GSU WT [pM]; TDCC” value is 0.039 pM.
Take B4: the “EC50 GSU KO CDH3 [pM]; TDCC” value came to 2.89 pM; the “EC50 GSU WT [pM]; TDCC” value came to 0.098 pM.

Another test concerns the target T2, CDH3 (Cadherin-3, P-Cadherin) on HCT116 or GSU cells (UniProt P22223 108-829, limits assumed). Nature of the test: cell-based or functional assay.
Take B1: the “EC50 GSU KO MSLN [pM]; TDCC, MSLN knocked out, CDH3 left” value (from here on “EC50 GSU KO MSLN [pM]; TDCC”) is 55.3 pM; the “EC50 GSU WT [pM]; TDCC” value amounted to 0.073 pM.
Take B2: the “EC50 GSU KO MSLN [pM]; TDCC” value amounted to 103 pM; the “EC50 GSU WT [pM]; TDCC” value stood at 0.013 pM.
On to B3, for which the “EC50 GSU KO MSLN [pM]; TDCC” value is 349 pM; the “EC50 GSU WT [pM]; TDCC” value was 0.039 pM.
On to B4, for which the “EC50 GSU KO MSLN [pM]; TDCC” value turned out to be 36.8 pM; the “EC50 GSU WT [pM]; TDCC” value worked out at 0.098 pM.

A further test addresses T1, MSLN (Mesothelin) on HCT116 or GSU cells. Nature of the test: cell-based or functional assay. The source holds these as a separate data set.
In the case of B1, the “EC50 HCT116 KO CDH3 [pM]; TDCC, CDH3 knocked out, MSLN left” value (“EC50 HCT116 KO CDH3 [pM]; TDCC” below) was 3.19 pM; the “EC50 HCT116 WT [pM]; TDCC, cells double positive for CDH3 and MSLN” value (from here on “EC50 HCT116 WT [pM]; TDCC”) is 0.005 pM.
B2: the “EC50 HCT116 KO CDH3 [pM]; TDCC” value came out at 1.76 pM; the “EC50 HCT116 WT [pM]; TDCC” value was determined as 0.003 pM.
B3: the “EC50 HCT116 KO CDH3 [pM]; TDCC” value is 3.48 pM; the “EC50 HCT116 WT [pM]; TDCC” value came out at 0.013 pM.
In the case of B4, the “EC50 HCT116 KO CDH3 [pM]; TDCC” value was found to be 3.5 pM; the “EC50 HCT116 WT [pM]; TDCC” value turned out to be 0.027 pM.

In the next test the target is T2, CDH3 (Cadherin-3, P-Cadherin) on HCT116 …. Nature of the test: cell-based or functional assay. This is another data set of the same source.
As to B1, the “EC50 HCT116 KO MSLN [pM]; TDCC, MSLN knocked out, CDH3 left” value (from here on “EC50 HCT116 KO MSLN [pM]; TDCC”) worked out at 0.38 pM; the “EC50 HCT116 WT [pM]; TDCC” value is 0.005 pM.
For B2, the “EC50 HCT116 KO MSLN [pM]; TDCC” value amounted to 1.08 pM; the “EC50 HCT116 WT [pM]; TDCC” value stood at 0.003 pM.
Turning to B3, the “EC50 HCT116 KO MSLN [pM]; TDCC” value came out at 1.77 pM; the “EC50 HCT116 WT [pM]; TDCC” value came out at 0.013 pM.
In the case of B4, the “EC50 HCT116 KO MSLN [pM]; TDCC” value turned out to be 0.62 pM; the “EC50 HCT116 WT [pM]; TDCC” value came out at 0.027 pM.
